Experimental data as given in article PMC3384324 (Nucleic Acids Research, 2012).

Target: the molecule itself
Assay: cross-linking

B1: His6-PfORC1N_(1–238) (domain or fragment, Plasmodium falciparum 3D7, UniProt Q8I615 1-238, looked up)
chain: MTPKKKIFQNFQANDNEILSPTKKGIKLNVSKLNILNFENTIITKEKTNYEYKASLNKEIDEVLNNNNIINTHNNKKNNLNLYDYNNIKNSTHEFYIDLNEQNKQTIKYNDNKFTPINKKEKYNLDETSSSSISSSLTNISSSLTNISSSLTNISSSLSNSLDEKKKKKKIKKNNSTIINILNNNNNNSNIHHNNKHNIYNKYNISKKPQNKEIHTLPSNHQIKKKSNNTYNTCQQKM
stoichiometry N: 2
